For 2 substances, Top, EC50 and IC50 results are on record in patent publication US11028172.

In experiment [1] the target is human TIGIT expressed on cells (human) (UniProt Q495A1). The experiment in a line: flow cytometry on human TIGIT overexpressing cells, Alexa Fluor 647 anti-human IgG; fitted top of a flat control curve, unit from the y axis. On the technique in general: Flow cytometry measures light scatter and fluorescence of single cells or particles in a stream.
Experiment [2] concerns the target human TIGIT-His protein (human) (UniProt Q495A1). The experiment is described as follows: ELISA, plate coated with human TIGIT-His, anti-human IgG-HRP, OD 450nm; unit taken from the axis Log[Conc.]/ng/ml.
In experiment [3] the target is biotin-labeled human TIGIT protein (human) (UniProt Q495A1). The experiment is described as follows: ELISA blocking assay: CD155-hFc coated, biotin-labeled human TIGIT, antibody titrated. Background: An ELISA detects its analyte on a solid surface through an enzyme-linked reagent.
biotin-labeled human TIGIT protein (human), sequence (Q495A1 22-141 limits assumed): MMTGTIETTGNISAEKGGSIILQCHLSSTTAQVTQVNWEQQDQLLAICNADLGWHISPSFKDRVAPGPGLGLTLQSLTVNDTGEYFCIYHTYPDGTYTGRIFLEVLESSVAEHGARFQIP

human TIGIT expressed on cells (human), sequence (Q495A1 22-244): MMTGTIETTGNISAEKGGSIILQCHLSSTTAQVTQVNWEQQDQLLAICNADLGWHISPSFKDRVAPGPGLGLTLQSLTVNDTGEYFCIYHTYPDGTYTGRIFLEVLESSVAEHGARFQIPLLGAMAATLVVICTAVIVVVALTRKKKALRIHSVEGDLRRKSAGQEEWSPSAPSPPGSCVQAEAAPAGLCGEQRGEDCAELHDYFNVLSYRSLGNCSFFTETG
human TIGIT-His protein (human), sequence (Q495A1 22-141 limits assumed): as the sequence (Q495A1 22-141 limits assumed) above

For the substance total human IgG (antibody), the Top in experiment [1] came out at 110 MFI. For the substance Tiragolumab (RG6058, Roche) (antibody), the EC50 – broadly, the concentration that produces a half-maximal response – in experiment [2] is 0.00659 µg/mL. Further, in experiment [3], the IC50 (in general, the concentration that gives 50% inhibition) was determined as 0.531 µg/mL.
